Source: patent US7378498B2, “Protein encoded by a nucleic acid” (The Johns Hopkins University School of Medicine, priority 1998, dated 2008)
Positions count from the first letter of the chain named. Names may count otherwise.

B1: F7R: point mutant of the Homer EVH1 domain (protein)
chain: MGEQPIRSTRAHVFQIDPNTKKNWVPTSKHAVTVSYFYDSTRNVYRIISLDGSKAIINSTITPNMTFTKTSQKFGQWADSRANTVYGLGFSSEHHLSKFAEKFQEFKEAARLAKEKSQEK
modifications: left off: small tags and cut ends
notes: point mutant of the Homer EVH1 domain
B2: D39A: point mutant of the Homer EVH1 domain (protein)
chain: B1 chain with R7F, D39A
modifications: left off: small tags and cut ends
notes: as for B1
B3: V34M: point mutant of the Homer EVH1 domain (protein)
chain: B1 chain with R7F, V34M
modifications: left off: small tags and cut ends
notes: as for B1
B4: I48A: point mutant of the Homer EVH1 domain (protein)
chain: B1 chain with R7F, I48A
modifications: left off: small tags and cut ends
notes: as for B1
B5: R46A: point mutant of the Homer EVH1 domain (protein)
chain: B1 chain with R7F, R46A
modifications: left off: small tags and cut ends
notes: as for B1
B6: H95A: point mutant of the Homer EVH1 domain (protein)
chain: B1 chain with R7F, H95A
modifications: left off: small tags and cut ends
notes: as for B1
B7: N23A: point mutant of the Homer EVH1 domain (protein)
chain: B1 chain with R7F, N23A
modifications: left off: small tags and cut ends
notes: as for B1
B8: S28A: point mutant of the Homer EVH1 domain (protein)
chain: B1 chain with R7F, S28A
modifications: left off: small tags and cut ends
notes: as for B1
B9: R42E: point mutant of the Homer EVH1 domain (protein)
chain: B1 chain with R7F, R42E
modifications: left off: small tags and cut ends
notes: as for B1
B10: S8L: point mutant of the Homer EVH1 domain (protein)
chain: B1 chain with R7F, S8L
modifications: left off: small tags and cut ends
notes: as for B1
B11: S35V: point mutant of the Homer EVH1 domain (protein)
chain: B1 chain with R7F, S35V
modifications: left off: small tags and cut ends
notes: as for B1
B12: F67S: point mutant of the Homer EVH1 domain (protein)
chain: B1 chain with R7F, F67S
modifications: left off: small tags and cut ends
notes: as for B1
B13: Q72A: point mutant of the Homer EVH1 domain (protein)
chain: B1 chain with R7F, Q72A
modifications: left off: small tags and cut ends
notes: as for B1
B14: L96S: point mutant of the Homer EVH1 domain (protein)
chain: B1 chain with R7F, L96S
modifications: left off: small tags and cut ends
notes: as for B1
B15: N64G: point mutant of the Homer EVH1 domain (protein)
chain: B1 chain with R7F, N64G
modifications: left off: small tags and cut ends
notes: as for B1
B16: N58A: point mutant of the Homer EVH1 domain (protein)
chain: B1 chain with R7F, N58A
modifications: left off: small tags and cut ends
notes: as for B1
B17: F90S: point mutant of the Homer EVH1 domain (protein)
chain: B1 chain with R7F, F90S
modifications: left off: small tags and cut ends
notes: as for B1
B18: F74A: point mutant of the Homer EVH1 domain (protein)
chain: B1 chain with R7F, F74A
modifications: left off: small tags and cut ends
notes: as for B1
B19: K69A: point mutant of the Homer EVH1 domain (protein)
chain: B1 chain with R7F, K69A
modifications: left off: small tags and cut ends
notes: as for B1
B20: E93K: point mutant of the Homer EVH1 domain (protein)
chain: B1 chain with R7F, E93K
modifications: left off: small tags and cut ends
notes: as for B1
B21: R46C: point mutant of the Homer EVH1 domain (protein)
chain: B1 chain with R7F, R46C
modifications: left off: small tags and cut ends
notes: as for B1
B22: F74L: point mutant of the Homer EVH1 domain (protein)
chain: B1 chain with R7F, F74L
modifications: left off: small tags and cut ends
notes: as for B1
B23: R42A: point mutant of the Homer EVH1 domain (protein)
chain: B1 chain with R7F, R42A
modifications: left off: small tags and cut ends
notes: as for B1

System: mGluR-evoked Ca^+2 responses in Purkinje cells
Experiment: Fura-2 ratio imaging of quisqualate-evoked Ca2+ mobilization in transfected cerebellar Purkinje cells
Format: cell-based, mouse
Conditions: 1 TM in the internal saline
Source text: The truncated Homer protein used lacks the coiled-coil domain and is unable to form a bridge linking the mGluR at the cell surface with intracellular inositol trisphosphate receptors. The truncated form of Homer protein resembled Homer 1a with the exception of 11 residues at the carboxy-terminal. This form of Homer results in enhanced expression of Homer protein as compared with transfection of Homer 1a in heterologous cells. The Homer protein was introduced into Purkinje cells in primary cerebellar cultures and glutamate induced effects on calcium mobilization was measured.
Embryonic mouse cerebellar cultures were prepared and maintained according to the method of Schilling et al. (Schilling et al., Neuron 7:891 1991). At 4-5 DIV, cultures were transfected with plasmids coding for E-GFP (Clontech) and either full-length Homer 1b or an IEG form of Homer 1. The IEG form of Homer 1 was a 186 amino acid amino-terminal fragment of Homer 1b. Plasmids were purified by cesium banding. Three combinations of the plasmids were transfected. Group I (control), 20 Tg of E-GFP and 40 Tg of pRK5 vector; group II, 20 Tg of E-GFP and 40 Tg of pRK5 Homer 1 IEG; group III: 20 Tg of E-GFP and 40 Tg of pRK5 Homer 1b. Plasmid DNA was mixed with gold particles (0.6 micron), and coated onto plastic tubing. DNA was then ballistically transfected into cells according to the manufacturer's protocol (Helios Gene Gun System, BIO-RAD). After transfection, cultures were returned to the incubator and maintained for an additional […] for a total of 7-8 DIV at the time of use for imaging experiments.
Patch electrodes were attached to the somata of GFP-expressing Purkinje cells and a holding potential of −60 mV was applied. Micropressure electrodes (1 Tm tip diameter) were filled with quisqualate (100 Tm in external saline) and were positioned ˜20 Tm away from large-caliber dendrites. Test pulses were delivered using positive pressure (6 psi, 1 sec). Cells were bathed in a solution that contained (in mM) NaCl (140), KCl (5), EGTA (0.2), MgCl2 (0.8), HEPES (10), glucose (10), tetrodotoxin (0.005), and picrotoxin (0.1), adjusted to pH 7.35 with NaOH, which flowed at a rate of 0.5 ml/m The recording electrode contained CsCl (135), HEPES (10), fura-2 K5 salt (0.2), and Na2-ATP (4), adjusted to pH 7.35 with CSOH. Patch electrodes yielded a resistance of 3-5 MA when measured with the internal and external salines described above.
Fura-2 ratio imaging of intracellular free Ca^2+, was accomplished by measuring the background corrected fluorescence ratio at 340 and 380 nm excitation using a cooled CCD camera system, as previously described (Linden et al., J Neurosci 15:5098 1995). Exposure times were 200 msec per single wavelength image. Experiments were conducted at room temperature. Enhanced GFP is weakly excited by illumination in the 380-400 nm spectrum. Based upon the bandpass characteristics of our 340HT15 and 380HT10 excitation filters and the absorption spectrum of enhanced GFP (Clontech), we estimate that <1% of the signal at 340 nm excitation and <5% of the signal at 380 nm excitation is contributed by GFP, even in those cells where the fura/GFP loading ratio is smallest. This could lead to a small (<5%) systemic underestimation of free calcium concentration that should distribute randomly across experimental groups.
Calcium mobilization in the absence of influx was measure by ratio imaging fura-2 in Purkinje cells bathed in Ca^+2-free external saline and stimulated with a micropressure pulse of quisqualate, a metabotropic glutamate receptor agonist (Linden, Neuron 17:483 1996). […] The decay phase of the Ca^+2 response appeared somewhat slower in neurons transfected with the truncated form. […]

Molecule	block of quisqualate-evoked Ca^+2 transient
C1CCC[C@H]2CCCN3CC[C@@H](CCCCCC[C@@H]4CCCN5CC[C@@H](CC1)O[C@@H]45)O[C@@H]23 [xestospongin C, reference compound]	completely blocked

Same assay, conditions: 500 TM in the bath

Molecule	block of quisqualate-evoked Ca^+2 transient
CC(N)(C(=O)O)c1ccc(C(=O)O)cc1 (single isomer, unassigned; (+)) [(+)-MCPG, reference compound]	completely blocked

System: GST-mGluR5 or GST-Shank3 (residues 1143-1408)
Experiment: GST pull-down binding of Homer EVH1 point mutants
Parameters: key: wild-type (+); (−) indicates substantially reduced binding relative to wild-type (+)
Conditions: GST pull-down of myc-tagged mutants from HEK293 lysates, relative to wild-type

Molecule	Binding
B1	+
B2	−
B3	+
B4	+
B5	−
B6	+
B7	+
B8	−
B9	−
B10	−
B11	+
B12	−
B13	+
B14	+
B15	+
B16	+
B17	+
B18	+
B19	+
B20	+
B21	+
B22	+
B23	+
